Results reported in patent US20230322930A1, “USE OF AN ANTI-PD-1 ANTIBODY AND A CYTOTOXIC ANTICANCER DRUG IN TREATMENT OF NON-SMALL CELL LUNG CANCER” (SHANGHAI JUNSHI BIOSCIENCES CO., LTD., priority 2020, published 2023).

System: EGFR+NSCLC patients
Assay: Phase II clinical trial, safety study (treatment-related adverse effects)
Settings: with pemetrexed + carboplatin; n = 40

## toripalimab: anti-PD-1 humanized IgG4 mAb with light and heavy chains of SEQ ID NOs: 9 and 10; described in WO 2014206107
  Elevated glutamyltransferase (TRAE), incidence of grade 3-5: 0%
  Elevated glutamyltransferase (TRAE), total incidence: (10.0) %
  Influenza and other diseases (TRAE), incidence of grade 3-5: 0%
  Influenza and other diseases (TRAE), total incidence: (10.0) %
  Leukopenia (TRAE), incidence of grade 3-5: (22.5) %
  Urinary tract infection (TRAE), incidence of grade 3-5: 0%
  Urinary tract infection (TRAE), total incidence: (12.5) %
